According to patent US20110200585A1:
pKd: −log10 of the molar value.

How the values were obtained:
rat FcRn (rat) = rat FcRn (rat) (UniProt P13599); experiment: SPR, ProteOn XPR36; antibody amine-coupled to GLM chip, FcRn 8-2048 nM as analyte, equilibrium fit, pH 6.0
Mouse FcRn (mouse) = Mouse FcRn (mouse) (UniProt Q61559); experiment: as above
Human FcRn (human) = Human FcRn (human) (UniProt P55899); experiment: as above
Cyno FcRn (cyno) = Cyno FcRn (cyno) (UniProt Q8SPV9); experiment: as above
Fcγ3a (Phe) = Fcγ3a (Phe) (UniProt P08637); experiment: SPR, ProteOn XPR36; antibody amine-coupled to GLM chip, receptor 8-2048 nM as analyte, equilibrium fit, pH 7.4
Chain of Fcγ3a (Phe) (P08637 17-208): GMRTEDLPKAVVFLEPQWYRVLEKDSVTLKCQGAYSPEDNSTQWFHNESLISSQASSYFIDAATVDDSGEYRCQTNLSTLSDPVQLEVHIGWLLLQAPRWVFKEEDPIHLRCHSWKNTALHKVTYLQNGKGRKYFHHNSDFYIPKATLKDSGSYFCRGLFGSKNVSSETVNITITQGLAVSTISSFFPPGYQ

Fcγ (Val) = Fcγ (Val) (UniProt P08637); experiment: as above
Chain of Fcγ (Val) (P08637 17-208 F176V): as the sequence (P08637 17-208) above, with F160V counted along it

Fcγ2a (Arg) = Fcγ2a (Arg) (UniProt P12318); experiment: as above
Chain of Fcγ2a (Arg) (P12318 34-217 H167R): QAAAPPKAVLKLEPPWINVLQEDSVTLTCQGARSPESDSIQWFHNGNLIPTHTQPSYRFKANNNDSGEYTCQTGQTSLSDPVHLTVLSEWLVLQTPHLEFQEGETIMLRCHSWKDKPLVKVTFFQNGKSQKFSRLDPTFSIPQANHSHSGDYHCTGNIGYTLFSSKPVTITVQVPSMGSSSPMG

Fcγ1 = Fcγ1 (UniProt P12314); experiment: as above
Chain of Fcγ1 (P12314 16-288): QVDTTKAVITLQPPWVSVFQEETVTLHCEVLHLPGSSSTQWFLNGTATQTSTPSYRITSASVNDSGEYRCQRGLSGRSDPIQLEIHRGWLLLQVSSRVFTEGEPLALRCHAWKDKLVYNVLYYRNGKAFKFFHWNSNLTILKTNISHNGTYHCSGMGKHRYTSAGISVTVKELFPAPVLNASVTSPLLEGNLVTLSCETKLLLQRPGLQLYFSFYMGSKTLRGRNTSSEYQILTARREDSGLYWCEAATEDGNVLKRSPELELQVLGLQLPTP

Chain of rat FcRn (rat) (P13599 23-298 limits assumed, form in doubt, chain 1 of 2): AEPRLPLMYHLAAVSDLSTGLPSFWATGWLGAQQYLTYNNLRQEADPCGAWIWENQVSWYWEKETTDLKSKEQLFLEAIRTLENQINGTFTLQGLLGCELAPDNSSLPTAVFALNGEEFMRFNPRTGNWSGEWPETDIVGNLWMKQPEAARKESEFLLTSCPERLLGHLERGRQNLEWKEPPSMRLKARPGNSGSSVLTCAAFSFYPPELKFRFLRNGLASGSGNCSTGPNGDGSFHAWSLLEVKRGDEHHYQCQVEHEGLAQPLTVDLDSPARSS
Chain of rat FcRn (rat) (chain, as listed by the source limits assumed, form in doubt, chain 2 of 2): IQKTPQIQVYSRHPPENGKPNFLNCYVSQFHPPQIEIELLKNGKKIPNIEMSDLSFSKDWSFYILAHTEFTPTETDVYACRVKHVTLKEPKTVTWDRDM
Chain of Mouse FcRn (mouse) (Q61559 22-297 limits assumed, form in doubt, chain 1 of 2): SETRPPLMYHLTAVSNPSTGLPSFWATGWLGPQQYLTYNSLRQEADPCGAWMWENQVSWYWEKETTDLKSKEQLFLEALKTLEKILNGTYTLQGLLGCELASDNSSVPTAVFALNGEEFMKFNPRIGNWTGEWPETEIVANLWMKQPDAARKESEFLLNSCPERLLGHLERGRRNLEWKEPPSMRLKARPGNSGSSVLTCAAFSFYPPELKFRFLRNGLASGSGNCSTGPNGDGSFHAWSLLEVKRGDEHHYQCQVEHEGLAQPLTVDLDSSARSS
Chain of Mouse FcRn (mouse) (chain, as listed by the source limits assumed, form in doubt, chain 2 of 2): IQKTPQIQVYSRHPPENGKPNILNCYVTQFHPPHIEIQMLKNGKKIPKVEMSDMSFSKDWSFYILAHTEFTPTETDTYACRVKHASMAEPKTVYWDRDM
Chain of Human FcRn (human) (P55899 24-297 limits assumed, chain 1 of 2): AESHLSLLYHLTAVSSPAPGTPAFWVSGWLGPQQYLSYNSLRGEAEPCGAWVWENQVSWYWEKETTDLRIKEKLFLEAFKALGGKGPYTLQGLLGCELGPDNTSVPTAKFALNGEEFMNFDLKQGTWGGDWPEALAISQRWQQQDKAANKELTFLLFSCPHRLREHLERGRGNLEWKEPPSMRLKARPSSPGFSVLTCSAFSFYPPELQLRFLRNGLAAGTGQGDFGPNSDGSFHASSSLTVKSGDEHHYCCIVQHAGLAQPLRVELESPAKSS
Chain of Human FcRn (human) (chain, as listed by the source limits assumed, chain 2 of 2): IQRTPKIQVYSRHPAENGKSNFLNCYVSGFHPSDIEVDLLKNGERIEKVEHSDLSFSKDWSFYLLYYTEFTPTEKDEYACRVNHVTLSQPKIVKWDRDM

Substance | pKd (rat FcRn (rat)) | pKd (Mouse FcRn (mouse)) | pKd (Human FcRn (human)) | pKd (Cyno FcRn (cyno)) | pKd (Fcγ3a (Phe)) | pKd (Fcγ (Val)) | pKd (Fcγ2a (Arg)) | pKd (Fcγ1)
Control Ab (Fc disabled) (antibody) | 6.93 | 6.77 | 6.81 | 6.71 |  |  |  | 
Control Ab (Fc WT) (antibody) | 6.95 | 6.80 | 7.02 | 6.81 | 5.74 | 6.35 | 5.89 | 7.83
